Target: T1, Human β-catenin, GST tagged (human, UniProt P35222 1-781)
T1 chain: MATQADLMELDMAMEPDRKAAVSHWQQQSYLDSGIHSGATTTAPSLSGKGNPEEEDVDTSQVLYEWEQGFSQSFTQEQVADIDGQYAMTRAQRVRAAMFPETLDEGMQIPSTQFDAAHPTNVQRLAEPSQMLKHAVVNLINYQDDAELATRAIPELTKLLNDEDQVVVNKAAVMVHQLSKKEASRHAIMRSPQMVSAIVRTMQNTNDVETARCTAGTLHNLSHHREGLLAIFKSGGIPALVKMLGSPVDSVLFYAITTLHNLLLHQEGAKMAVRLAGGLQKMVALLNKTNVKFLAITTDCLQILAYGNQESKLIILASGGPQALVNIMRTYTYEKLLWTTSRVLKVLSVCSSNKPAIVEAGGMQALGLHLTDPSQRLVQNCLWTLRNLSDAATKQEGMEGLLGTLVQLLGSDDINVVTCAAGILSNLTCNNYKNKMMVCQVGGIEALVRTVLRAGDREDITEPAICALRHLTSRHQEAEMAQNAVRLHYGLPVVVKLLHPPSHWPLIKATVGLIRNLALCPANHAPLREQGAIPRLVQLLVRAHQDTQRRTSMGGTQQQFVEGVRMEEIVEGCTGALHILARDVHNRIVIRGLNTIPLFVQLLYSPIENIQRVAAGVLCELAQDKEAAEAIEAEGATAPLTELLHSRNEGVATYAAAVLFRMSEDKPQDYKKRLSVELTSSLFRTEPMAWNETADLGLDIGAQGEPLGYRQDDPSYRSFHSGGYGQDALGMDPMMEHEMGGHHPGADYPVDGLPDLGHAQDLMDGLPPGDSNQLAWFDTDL

Kd: 35 nM
B1: αE-catenin, monomeric fraction (mouse, full length, His(6x) tagged) (natural protein)
chain: MTAVHAGNINFKWDPKSLEIRTLAVERLLEPLVTQVTTLVNTNSKGPSNKKRGRSKKAHVLAASVEQATENFLEKGDKIAKESQFLKEELVVAVEDVRKQGDLMKSAAGEFADDPCSSVKRGNMVRAARALLSAVTRLLILADMADVYKLLVQLKVVEDGILKLRNAGNEQDLGIQYKALKPEVDKLNIMAAKRQQELKDVGNRDQMAAARGILQKNVPILYTASQACLQHPDVAAYKANRDLIYKQLQQAVTGISNAAQATASDDAAQHQGGSGGELAYALNNFDKQIIVDPLSFSEERFRPSLEERLESIISGAALMADSSCTRDDRRERIVAECNAVRQALQDLLSEYMGNAGRKERSDALNSAIDKMTKKTRDLRRQLRKAVMDHVSDSFLETNVPLLVLIEAAKNGNEKEVKEYAQVFREHANKLIEVANLACSISNNEEGVKLVRMSASQLEALCPQVINAALALAAKPQSKLAQENMDLFKEQWEKQVRVLTDAVDDITSIDDFLAVSENHILEDVNKCVIALQEKDVDGLDRTAGAIRGRAARVIHVVTSEMDNYEPGVYTEKVLEATKLLSNTVMPRFTEQVEAAVEALSSDPAQPMDENEFIDASRLVYDGIRDIRKAVLMIRTPEELDDSDFETEDFDVRSRTSVQTEDDQLIAGQSARAIMAQLPQEQKAKIAEQVASFQEEKSKLDAEVSKWDDSGNDIIVLAKQMCMIMMEMTDFTRGKGPLKNTSDVISAAKKIAEAGSRMDKLGRTIADHCPDSACKQDLLAYLQRIALYCHQLNICSKVKAEVQNLGGELVVSGVDSAMSLIQAAKNLMNAVVQTVKASYVASTKYQKSQGMASLNLPAVSWKMKAPEKKPLVKREKQDETQTKIKRASQKKHVNPVQALSEFKAMDSI

Reference: paper PMC8894357 (2022)
